Results as given in the nanobody polyreactivity screen of Harvey et al. (2022).

Assay: yeast display, Sf9 membrane polyspecificity reagent, FACS + sequencing; frameworks hold sequencing errors
Procedure, shortened: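 After 36–48 hours of galactose induction, yeast (Saccharomyces cerevisiae BJ5465) displaying a synthetic nanobody library were stained at 4 °C for 1 hour with 10% biotinylated, detergent-solubilized Sf9 membrane reagent. Streptavidin microbeads enriched the stained cells before FACS sorting into low and high (top ~1%) gates on anti-HA and streptavidin fluorescence. Each clone's polyreactivity label reflects its gate of origin.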

Sequence	polyreactivity (PSR sort gate)
QVQLVESGGGLVQAGGSLRLSCAASGRILRYNAMGWYRQAPGKERELVASISGNGGSTYYADSVKGRFTISRDNAKYTVYLQMNSLKPEDTAVYYWGQGTQVTVSS	low polyreactivity
QVQLVESGGGLVQAGGSLRLSCAASGRILSRYAMGWYRQAPGKERELVAAINKSGGSTYYADSVKGRFTISRDNAKNTVYLQMNSLKPEDTAVFYCNAVYYWYKGDYWGQGTQVTVSS	high polyreactivity
QVQLVESGGGLVQAGGSLRLSCAASGRILSRYVMGWYRQAPGKERELVAAISGRATSTYYADSVKGRFTISRDNAKNTVYLQMNSLKPEDTAVYYCATGYKTYAVTLYDYWGQGTQVTVSS	high polyreactivity
QVQLVESGGGLVQAGGSLRLSCAASGRILSYYAMGWYRQAPGKERELVAVIRRGASTYADSVKGRFTISRDNAKNTVYLQMNSLKPEDTAVYYCNAERVVGLSATKYGYWGQGTQVTVSS	low polyreactivity
QVQLVESGGGLVQAGGSLRLSCAASGRILTFYGMGWYRQAPGKERELVAAISNGGSTYYADSVKGRFTSSRDNAKNTVYLQMNSLKPEDTAVYYCAKRILTAPRRNSGYDYWGPGTQVTVSS	low polyreactivity
QVQLVESGGGLVQAGGSLRLSCAASGRILTGYAMGLYRQAPGKEREFVASITGSGAITNYADSVKGRFTITRDNAKNTVYLQMNSLKPEDTAVYYCARGYGWWLGYSSRYDYWGQGTQVTVSS	high polyreactivity
QVQLVESGGGLVQAGGSLRLSCAASGRILTKYAMGWYRQAPGKERELVAAISDSGTGTYYADSVKGRFTISRDNAKNTVYLQMNSLKPEDTAVYYCHAQTRRTRTYHGHKYGYWGQGTQVTVSW	high polyreactivity
QVQLVESGGGLVQAGGSLRLSCAASGRILTSNAMGWYRQAPGKERELVAAISWSGGSTYYADSVKGRFTISRDNAKNTVYLQMNSLKPEDTAVYYCNADDTPVPSIRFDYWGQGTQVTVSS	low polyreactivity
QVQLVESGGGLVQAGGSLRLSCAASGRILTSYARGWYRQAPGKVRELVAAISYVCGSTDYADSVKGRFTISRDNAKNTVYLQMNSLKPEDTAVYYCAAKVRYYLSLRGSTTRRDDYYWGQGTQVTVSS	low polyreactivity
QVQLVESGGGLVQAGGSLRLSCAASGRILTYNAMGWYRQAPGKERELVATISARGSRTYYADSVKGRFTISRDNAKNTVYLQMNSLKPEDTAVYYCNAAVGYYSYSYYTKVGVDYWGQGTQVTVSS	high polyreactivity
QVQLVESGGGLVQAGGSLRLSCAASGRILVFYAMGGYRQAPGIERELVAAISKSVRPTYYADSVKGRFTISRDNAQNTVYLQMNSLKPEDTAVYYCNTRSASDLWPQYGYWGQGTQVTVSS	low polyreactivity
QVQLVESGGGLVQAGGSLRLSCAASGRILWSYPMGWYRQAPGKEREFVATINRSGGNTHYADSVKGRFTISRDNAKNTVYLQMYSLKPEDTAVYYCAALNLVPYGYQGLRYYYWGQGTQVTVSS	high polyreactivity
QVQLVESGGGLVQAGGSLRLSCAASGRILYAYTMGWYRQAPGKERELVATISRSGGNTYYADSVKGRFTISRDNAKNTVYLQMNSLKPEDTAVYYCAVGKYGTQRVKLYQYRYNYWGQGTQVTVSS	high polyreactivity
QVQLVESGGGLVQAGGSLRLSCAASGRILYGNAMGWYRQAPGKERELVAAIDTSGGSTYYADSVKGRFTISRDNAKNTVYLQMNSLKPEDTAVYYCAVRAYREFLPIVYKWWWERDHWGQGTQVTVSS	low polyreactivity
QVQLVESGGGLVQAGGSLRLSCAASGRILYGYAMGWYRQAPGKERELVASITWSGGSTYADSVKGRFTISRDNAKNTVYLQMNSLKPEDTAVYYCATRRGPKWQWLTYGYWGQGTQVTVSS	low polyreactivity
QVQLVESGGGLVQAGGSLRLSCAASGRILYHYAMGWYRQAPGKERELVAAITFSGDTTYYADSVKGRFTISRDNAKNTVYLQMNSLKPEDTAVYYCAADDYYLGYEYWGQGTQVTVSS	high polyreactivity
QVQLVESGGGLVQAGGSLRLSCAASGRILYRNAMGWYRQATGKERELVAAITTRGTSTYYADSVKGRFTISRDNAKNTVYLQMNSLKPEDTSVYYCAADSWFSYRGPLYYWGQGTKVTVSS	high polyreactivity
QVQLVESGGGLVQAGGSLRLSCAASGRILYRYAMGWYRQAPGKERELVAAITWRGGTTYYADSVKGRFTISRDNAKNTVYLQMNSLKPEYTAVYYCNADWWRTLESDFWGQGTQVTVSS	low polyreactivity
QVQLVESGGGLVQAGGSLRLSCAASGRILYSYAMGWYRQAPGKEREFVAAISRSGARTYYADYVKGRFTISRDNAKNTVYLQMNSLKPEDTAVYYCAADDFSTVEYDYWGQGTQVTVSS	low polyreactivity
QVQLVESGGGLVQAGGSLRLSCAASGRILYTYAMGWYRQAPGKERELVATISSGGGTNYADSVKGRFTISRDNAKNTVYLQMNSLKPEDSAVYYCAARYGYSRGPYYRSDYWGQGTQVTVSS	high polyreactivity
QVQLVESGGGLVQAGGSLRLSCAASGRILYYNVMVWYRQAPGKERELVASNTSVVSTNYADSVKGRFTISRDNAKNTVYLHMNSLKPEDTAVYYCAARYFSGSFSDEIWGMDYWGQGTQVTVSS	high polyreactivity
QVQLVESGGGLVQAGGSLRLSCAASGRIRFYARGWYRQAPGKEREFVASITRSGGSTYYADSVKGRFTISRDNAKYTVYLQMNSLKPEDTAVYYCAADDYFHDDYWGQGTQVTVSS	high polyreactivity

Sequence	polyreactivity (PSR sort gate)
QVQLVESGGGLVQAGGSLRLSCAASGRIRNAMGWYRQAPGKERELVAGITWSGGRTYYADSVKGRFTISRDNAKYTVYLQMNSLKPEDTAVYYCAAATPYRYNYWGQGTQVTVSS	high polyreactivity
QVQLVESGGGLVQAGGSLRLSCAASGRIRVQNDMGWYRQAPGKERELVAAIRSDGSPSYSDSVKGRFTISRDNAKNTVYLQMNSLKPEDTAVYYCAARIDWTGGEYDYWGQGTQVTVSS	low polyreactivity
QVQLVESGGGLVQAGGSLRLSCAASGRISAYNAMGWYRQAPGKERELVAGISTRTGSTYYADSVKGRFTISRDNAKNTVYLQMNSLKPEDTAVYYGAAYFWGVYFFGMDYWGQGTQVTVSS	low polyreactivity
QVQLVESGGGLVQAGGSLRLSCAASGRISDVYVMGWYRQAPGKERELVAAITWSGGDTYYADSVKGRFTISRDNAKNTVYLQMNSLNPEDTAVYYCNADTGKWGGNGWYEFDYWGQGTQVTVSS	low polyreactivity
QVQLVESGGGLVQAGGSLRLSCAASGRISFINAMGWYRQAPGKEREFVAGITTDGGSTYYADSVKGRFTISRDNAKNTVYLQMNSLKPEDTAVYYCAAEGSVWYVYWGDIYDYWGQGTQVTVSS	low polyreactivity
QVQLVESGGGLVQAGGSLRLSCAASGRISLSNAMGWYRQAPGKEREFVAAITKRSDRTYYADSVKGRFTISRDNAKNTVYLQMNSLKPEDRAVYYCAAKPLFGTRDDYWGQGTQVTVSS	low polyreactivity
QVQLVESGGGLVQAGGSLRLSCAASGRISLSNAMGWYRQAPGKEREFVAAITKRSDRTYYADSVKGRFTISRDNAKNTVYLQMNSLKPEDTAVYYCAAKPLFGTRDEYWGQGTQVTVSS	low polyreactivity
QVQLVESGGGLVQAGGSLRLSCAASGRISPNNAMGWYIPAPGKERELVAAITASGGTTYYADSVKGRFTISRDNAKYTVYLQMNSLKPEDSAVYYCAAAVWYRGWYRYDYWGQGTQVTVSS	low polyreactivity
QVQLVESGGGLVQAGGSLRLSCAASGRISQGYAMGWYRQAPGKERELVPGISRSGGSTYYADSVKGRFTISPDNAKNTVYLQMHSLKPEDTAVYYCAAQSWYGFPNYYWGQGSQVTVSS	high polyreactivity
QVQLVESGGGLVQAGGSLRLSCAASGRISQSNAMGWYRQAPGKERELVAAISWRGGSTYYADSVKGRFTISRDNAKNTVYLQMNSLKPEDTAVYYCAVRGKYDRHYYWGQGTQVTVSS	high polyreactivity
QVQLVESGGGLVQAGGSLRLSCAASGRISRLNAMGWYRQAPGKERELVATISGRGGGTYYADSVKGRFTISRDNAKNTVYLQMNSLKPEDTAVYYCNRRWFTRYDYWGQGTQVTVSS	high polyreactivity
QVQLVESGGGLVQAGGSLRLSCAASGRISRTNAMGWYRQAPGKERELVATITRGGNTNYADSVKGRFTISRDNAKNTVYLQMNSLKPEDTAVYYCAALGRYLRTYRGYVWQFDSWGQGTQVTVSS	high polyreactivity
QVQLVESGGGLVQAGGSLRLSCAASGRISSYYAMGWYRQAPGKEREFVAAITRSSGSTYYADSVKGRFTISRDNAKNTVYLQMNSLKPEDTAVYYCAADYYWTTFSRFDYWGQGTQVTVSS	low polyreactivity
QVQLVESGGGLVQAGGSLRLSCAASGRISVNYAMGWYRQAPGKERELVAGITSRGGSTYYADSVKGRFTISRDNAKNTVYLQMNSLKPEDTAVYYCAARWGGLWYYYWGQGTQVTVSS	high polyreactivity
QVQLVESGGGLVQAGGSLRLSCAASGRISVYYAMGWYRQGPGKERELVAAISWRGSTYYADSVKGRFTISRDYAKNTVYIQMNSQKPEDTAVYNSAARSTGYYGRFYYWGQGTQVTVSS	high polyreactivity
QVQLVESGGGLVQAGGSLRLSCAASGRITYYAMGWYRQAPGKERELVAVISWSGSSTNYADSVKGRFTISRDNAKNTVYLQMNSLKPEDTAVYFCAAENAVTGTDGEYYYWGQGTQVTVSS	high polyreactivity
QVQLVESGGGLVQAGGSLRLSCAASGRIVARNAMRWYSQAPGKERELVGAITYSGGSTYYADSVKGRFTISRDNAKNTVYLPMISLKPEDTAVYYCAAETSKRGRRYYYWGQGTQVTVSS	high polyreactivity
QVQLVESGGGLVQAGGSLRLSCAASGRIVGINVMGWYRQAPGKERELVAAISYRTGSTYYADSVKGRFTISRDNAKNTVYLQMNSLKPEDTAVYYCDAQRRIRTAWYDYWGQGTQVTVSS	high polyreactivity
QVQLVESGGGLVQAGGSLRLSCAASGRIVNFYAMGWYRQAPGKEREFVAAISWSGGSTSYADSVKGRFTISRDTAKKTDYLQMNSLKPEDTAVSYCAVRWSSRSRRYNYWGQGTQVTVSS	high polyreactivity
QVQLVESGGGLVQAGGSLRLSCAASGRIVNYYAMGWYRQAPGKERELVAAINSGGSTDYADSVKGRFTISRDNAKNTVYLQMNSLKPEDTAVYYCNAEKTYLYTDIPGYARFGYWGQGTQVTVSS	high polyreactivity
QVQLVESGGGLVQAGGSLRLSCAASGRIVRNAMGWYRPAPGKEWELVAAITRSGGSTYYADSVKGRFTISRDNAKKTVYLQMNSLKPEDTAVYYCAARHYRSRDGYSGQGTQVTVSS	high polyreactivity
